These results are taken from article PMC3839849 (Journal of molecular biology, 2013).

The assay concerns the target CaV1.2 IQ domain TripleA mutant (CaV1.2 F1618A, F1619A, Y1622A) (human). Kind of assay: ITC.

B1: CaBP1 C-terminal lobe (domain or fragment)
chain: IGVKELRDAFREFDTNGDGEISTSELREAMRKLLGHQVGHRDIEEIIRDVDLNGDGRVDFEEFVRMMSR
For B1, the Kd came to 221 nM, the dH is -1.45 ± 0.14 kcal/mol and the “stoichiometry N” value was 0.93 ± 0.01.
